Test results published in article PMC10320842.

T1: yRev1 305-746 (Saccharomyces cerevisiae, UniProt P12689 305-746)
T1 sequence: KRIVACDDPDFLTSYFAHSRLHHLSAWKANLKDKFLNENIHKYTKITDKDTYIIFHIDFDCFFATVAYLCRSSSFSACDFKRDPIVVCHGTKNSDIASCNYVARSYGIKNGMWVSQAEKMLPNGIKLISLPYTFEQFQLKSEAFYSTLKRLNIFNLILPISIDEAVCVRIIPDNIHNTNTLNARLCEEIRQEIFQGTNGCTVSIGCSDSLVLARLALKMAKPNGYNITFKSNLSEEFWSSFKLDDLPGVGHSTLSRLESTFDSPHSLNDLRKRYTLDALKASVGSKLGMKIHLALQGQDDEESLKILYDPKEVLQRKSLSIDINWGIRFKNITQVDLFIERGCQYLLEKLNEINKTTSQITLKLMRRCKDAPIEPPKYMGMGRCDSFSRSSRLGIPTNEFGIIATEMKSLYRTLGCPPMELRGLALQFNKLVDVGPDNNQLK

T2: hRev1 330-833 WT (human, UniProt Q9UBZ9 330-833)
T2 sequence: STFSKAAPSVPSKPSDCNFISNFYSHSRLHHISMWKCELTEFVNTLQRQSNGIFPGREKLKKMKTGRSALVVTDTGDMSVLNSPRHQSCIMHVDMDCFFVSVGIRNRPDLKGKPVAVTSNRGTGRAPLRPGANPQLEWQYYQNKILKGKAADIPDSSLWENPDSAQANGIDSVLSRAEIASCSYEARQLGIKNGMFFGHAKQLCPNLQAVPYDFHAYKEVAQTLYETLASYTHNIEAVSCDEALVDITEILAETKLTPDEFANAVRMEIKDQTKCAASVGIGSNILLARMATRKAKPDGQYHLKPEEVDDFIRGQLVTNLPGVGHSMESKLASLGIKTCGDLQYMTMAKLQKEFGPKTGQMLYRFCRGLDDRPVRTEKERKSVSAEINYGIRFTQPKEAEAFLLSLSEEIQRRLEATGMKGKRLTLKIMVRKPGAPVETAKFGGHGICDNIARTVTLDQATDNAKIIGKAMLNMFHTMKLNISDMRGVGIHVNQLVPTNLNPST

T3: hRev1 330-833 EY (human, UniProt Q9UBZ9 330-833, E466A;Y470A)
T3 sequence: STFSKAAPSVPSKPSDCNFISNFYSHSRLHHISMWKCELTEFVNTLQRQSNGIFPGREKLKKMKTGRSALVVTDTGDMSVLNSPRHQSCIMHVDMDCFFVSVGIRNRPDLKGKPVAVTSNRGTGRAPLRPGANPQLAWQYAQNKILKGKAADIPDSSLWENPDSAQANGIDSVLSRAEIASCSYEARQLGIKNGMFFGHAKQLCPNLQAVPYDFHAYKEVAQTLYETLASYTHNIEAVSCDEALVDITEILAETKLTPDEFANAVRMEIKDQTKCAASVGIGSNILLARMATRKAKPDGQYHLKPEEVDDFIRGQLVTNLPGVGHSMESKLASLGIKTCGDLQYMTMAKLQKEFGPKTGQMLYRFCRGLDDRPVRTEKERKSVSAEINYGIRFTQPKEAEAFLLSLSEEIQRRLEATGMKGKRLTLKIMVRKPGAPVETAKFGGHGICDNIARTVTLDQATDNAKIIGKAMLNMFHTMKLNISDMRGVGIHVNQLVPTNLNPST

B1: 23/42-mer non-G4 (mixed)
DNA 1: GTGAGATGTTGACCATGGGTGCGTCTGCGGCTGGCTCGAGGC
DNA 2: TTTGCCTCGAGCCAGCCGCAGACGCA
B2: 13/42-mer non-G4 (mixed)
DNA 1: GTGAGATGTTGACCATGGGTGCGTCTGCGGCTGGCTCGAGGC
DNA 2: TTTGCCTCGAGCCAGC
B3: p/t non-G4 Myc (mixed)
DNA 1: AGCGTGCGTAGCGTGCGTTATGAGATGAT
DNA 2: ATCATCTCATA
B4: p/t non-G4 TBA (mixed)
DNA 1: TGCTTGCTGTGCTTGCTATGAGATGAT
DNA 2: ATCATCTCATA
B5: 13/42-mer G4 (mixed)
DNA 1: TGAGGGTGGGTAGGGTGGGTGCGTCTGCGGCTGGCTCGAGGC
DNA 2: TTTGCCTCGAGCCAGC
B6: 23/42-mer G4 (mixed)
DNA 1: TGAGGGTGGGTAGGGTGGGTGCGTCTGCGGCTGGCTCGAGGC
DNA 2: TTTGCCTCGAGCCAGCCGCAGACGCA

What was measured:
Assay in all cases: fluorescence polarization
[1] = target: T1, yRev1 305-746
[2] = target: T2, hRev1 330-833 WT
[3] = target: T3, hRev1 330-833 EY

Binder | Kd [1] [nM] | Kd [2] [nM] | Kd [3] [nM]
GTGAGATGTTGACCATGGGTGCGTCTGCGGCTGGCTCGAGGC (ssDNA) [ss-42-mer non-G4] | 340 ± 60 | 85 ± 11 | 270 ± 50
B1 | 460 ± 50 | 210 ± 30 | 300 ± 40
B2 | – | 230 ± 30 | 250 ± 30
TGCTTGCTGTGCTTGCTATGAGATGAT (ssDNA) [ss non-G4 TBA] | 450 ± 70 | – | 150 ± 20
B3 | 480 ± 40 | – | 830 ± 120
B4 | 450 ± 30 | – | 230 ± 30
TGAGGGTGGGTAGGGTGGGTGCGTCTGCGGCTGGCTCGAGGC (structured_DNA) [ss-42-mer Myc G4] | 230 ± 50 | 4 ± 1 | 87 ± 10
B5 | – | 31 ± 6 | –
B6 | – | 88 ± 12 | –
AGCGTGCGTAGCGTGCGTTATGAGATGAT (ssDNA) [ss non-G4 Myc] | 340 ± 60 | – | 650 ± 130
TTGCGTTAGCGTTAGCGTTAGCGATATGAGATGAT (ssDNA) [ss non-G4 Telo-4] | 310 ± 40 | – | –
